Target: T1, PCSK2 (Homo sapiens, UniProt P16519)
T1 construct: purchased R&D Systems
T1 sequence (P16519 110-638): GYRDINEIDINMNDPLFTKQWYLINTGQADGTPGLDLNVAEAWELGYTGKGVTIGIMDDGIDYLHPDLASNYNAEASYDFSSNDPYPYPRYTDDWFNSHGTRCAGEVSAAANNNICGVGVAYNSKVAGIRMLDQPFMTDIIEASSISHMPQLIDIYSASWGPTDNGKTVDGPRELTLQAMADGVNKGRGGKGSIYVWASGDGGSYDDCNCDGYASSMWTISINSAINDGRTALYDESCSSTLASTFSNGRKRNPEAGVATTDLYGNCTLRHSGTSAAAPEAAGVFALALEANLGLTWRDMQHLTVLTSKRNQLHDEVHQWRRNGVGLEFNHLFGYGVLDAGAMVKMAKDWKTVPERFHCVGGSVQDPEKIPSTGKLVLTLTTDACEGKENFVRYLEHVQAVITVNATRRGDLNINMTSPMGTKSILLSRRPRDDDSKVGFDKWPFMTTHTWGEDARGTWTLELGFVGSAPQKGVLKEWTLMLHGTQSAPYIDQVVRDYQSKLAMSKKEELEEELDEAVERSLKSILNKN
Assay: 11F1 binding specificity competition assay
Conditions: 0.4 μg/mL 11F1, 0 to 20 μg/mL competitor
Experimental: Biotinylated PCSK9, diluted in buffer A (25 mM Tris, 150 mM NaCl, 0.1% BSA, 0.05% tween, pH 7.5) was bound to neutravidin coated 96 well plates at a concentration of 0.2 μg/mL, for one hour incubation at room temperature. Separately, 0.4 μg/mL of 11F1 was incubated for one hour at room temperature with various concentrations (ranging from 0 to 20 μg/mL) of either PCSK1, PCSK2, PCSK7, PCSK9 or furin (R&D Systems, Minneapolis, Minn.) (diluted in buffer A w/o tween). Furin inhibitor, at 4.5 μg/mL, was included with all furin containing reactions. The PCSK9 coated streptavidin plate was washed with buffer A and the antibody/proprotein convertase mixture was added to the plate and incubated at room temperature for one hour. After washing, bound antibody was detected by incubation with goat-α-human Fc-HRP (160 ng/mL, diluted in buffer A) (Jackson Laboratories, Bar Harbor, Me.) followed by TMB substrate. The reaction was stopped with 1 N HCl and the absorbance was read at a wavelength of 450 nm on a Spectramax Plus 384 spectrophotometer (Molecular Devices Inc., Sunnyvale, Calif.).
This assay relied on the ability of proprotein convertase in solution to compete for the binding of 11F1 to plate-captured PCSK9. […] All results were expressed as the mean OD450 value±standard deviation versus concentration of the proprotein convertase. […] Therefore, at the protein concentrations studied, 11F1 binds only to PCSK9 and not to the other proprotein convertase family members tested.

11F1: anti-PCSK9 ABP, light/heavy variable region SEQ ID NO 465/463 [Antibody 11F1]
effect of pre-incubation with PCSK2 in solution on 11F1 binding to plate-captured PCSK9: did not significantly impact the binding

Source: patent US12612465B2, “Formulations comprising PCSK9 specific monoclonal antibodies” (Amgen Inc., priority 2012, dated 2026)
